Reference: PMC12711026 (PLOS Pathogens, 2025)
Where no end group is shown, it is not given here. The star is where a group is joined. Biotin = O=C1N[C@H]2[C@H](CS[C@H]2CCCCC(=O)*)N1

Target: T1, carrier-free recombinant human Netrin-1-His (human, UniProt O95631 25-604)
T1 construct: also called rNetrin-1-His; rNetrin-1
Experiment: pull-down; Pierce Pull-Down Biotinylated Protein:Protein Interaction Kit; 150 μL of 0.5 mg/mL biotinylated peptide on streptavidin gel; 100 μL of 1 ng/μL recombinant LHBs with 0, 1, 2 or 4 ng/μL rNetrin-1-His; western blot
Settings: both partners purified

binding result: binds
Binder: Biotin-NSKMYLKTRA (also called C-terminal HBS of LIPG) [biotinylated LIPG-CTD HBS peptide (amino acids 331–340)]
